Results reported in patent US20240018252A1 (Pfizer, published 2024).

T1: human BCMA (human, UniProt Q02223 1-54)
T1 construct: soluble analyte in SPR; also called hBCMA; huBCMA
T1 sequence: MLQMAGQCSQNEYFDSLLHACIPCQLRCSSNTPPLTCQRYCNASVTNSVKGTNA


How the values were obtained:
human CD3 (huCD3ed) [1] = biological target: T2, human CD3 (huCD3ed) (human, UniProt P07766 23-126; P04234 22-105); assay: Biacore SPR, antibody as ligand, hCD3ed 80 nM-0.64 nM, kinetic fit
T2 construct: Soluble analyte in SPR; The delta chain is inferred from the label 'ed'; also called hCD3ed; hCD3

human BCMA = biological target: T1, human BCMA; assay: SPR, IgG immobilized, human BCMA analyte, 37 C
Procedure: (§1) All experiments were performed on a Bio-Rad Proteon XPR36 surface Plasmon resonance biosensor (Bio-Rad, Hercules, CA). […] The analysis temperature for the immobilization was 25° C. and the running buffer was HBS-T+(10 mM HEPES, 150 mM NaCl, 0.05% Tween-20, pH 7.4). Channels were activated in the analyte (horizontal) direction by injecting a mixture of 1 mM ECD and 0.25 mM NHS for 3 minutes at a flow rate of 30 μL/min. IgGs were immobilized on the activated spots by injecting them in the ligand (vertical) direction at […] in 10 mM Acetate pH 4.5 buffer for 1.5 minutes at 30 pg/mL. The activated surfaces were blocked by injecting 1M ethanolamine, pH 8.5 in the analyte direction for 3 minutes at 30 pL/min.
(§2) The analysis temperature for the hBCMA binding analysis was 37° C. or 25° C. in a running buffer of HBS-T+, supplemented with 1 mg/mL BSA. A kinetic titration method was employed for the interaction analysis as described in Abdiche, et al. The hBCMA (human BCMA) analyte was injected in the analyte direction using a series of injections from low to high concentration. The concentrations used were 0.08 nM, 0.4 nM, 2 nM, 10 nM and 50 nM (a 5-membered series, with a 5-fold dilution factor and top concentration of 50 nM). The association time for a given analyte dilution was two minutes. Immediately after the 50 nM hBCMA injection, dissociation was monitored for 2 hours.
(§3) The sensorgrams were double-referenced and fit to a 1:1 Langmuir with mass transport kinetic titration model in BIAevaluation Software version 4.1.1 (GE Lifesciences, Piscataway, NJ).

human CD3 (huCD3ed) [2] = biological target: T2, human CD3 (huCD3ed); assay: SPR (ProteOn XPR36), IgG on chip, huCD3ed analyte, 37 C; column head says nM but kd/ka gives this number in M
Procedure: as §1, with “[…].” for “pg/mL.”, “μL/min.” for “pL/min.”
as §2, with “hCD3” for “hBCMA”, “CD3)” for “BCMA)”
as §3

human CD3 (huCD3ed) [3] = biological target: T2, human CD3 (huCD3ed); assay: SPR (ProteOn XPR36), IgG amine-coupled on chip, huCD3ed as analyte, 37 C
Procedure: as §1, with “[…].” for “pg/mL.”, “μL/min.” for “pL/min.”
as §2, with “hCD3” for “hBCMA”, “CD3)” for “BCMA)”
as §3

human CD3 (huCD3ed) [4] = biological target: T2, human CD3 (huCD3ed); assay: SPR (ProteOn XPR36), IgG amine-coupled on chip, huCD3ed as analyte, 25 C
Procedure: as §1, with “[…].” for “pg/mL.”, “μL/min.” for “pL/min.”
as §2, with “hCD3” for “hBCMA”, “CD3)” for “BCMA)”
as §3

cynomolgus CD3 (cyCD3ed) = biological target: T3, cynomolgus CD3 (cyCD3ed) (cynomolgus, UniProt Q95LI5 22-117; Q95LI8 22-105); assay: SPR (ProteOn XPR36), IgG amine-coupled on chip, cyCD3ed as analyte, 25 C
T3 construct: Named only by the column head 'cyCD3ed'
T3 sequence (Q95LI5 22-117, chain 1 of 2): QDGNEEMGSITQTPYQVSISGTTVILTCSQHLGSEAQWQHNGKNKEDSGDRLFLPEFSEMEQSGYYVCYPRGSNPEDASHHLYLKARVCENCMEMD
T3 sequence (Q95LI8 22-105, chain 2 of 2): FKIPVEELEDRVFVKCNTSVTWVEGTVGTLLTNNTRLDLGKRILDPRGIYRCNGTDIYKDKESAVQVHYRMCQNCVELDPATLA

T2 sequence (P07766 23-126, chain 1 of 2): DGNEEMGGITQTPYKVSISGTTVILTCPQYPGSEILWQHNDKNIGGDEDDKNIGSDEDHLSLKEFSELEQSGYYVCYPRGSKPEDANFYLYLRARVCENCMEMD
T2 sequence (P04234 22-105, chain 2 of 2): as the sequence (Q95LI8 22-105, chain 2 of 2) above, with V5I, K15N, V20I, T32S, N33D, N34I, A64T, N74S, L83V counted along it

Row | Binder | Kd (human CD3 (huCD3ed) [1]) | t1/2 (human CD3 (huCD3ed) [1]) | Kd (human CD3 (huCD3ed) [2]) | T½ (human CD3 (huCD3ed) [3]) | koff (human CD3 (huCD3ed) [3]) | kon (human CD3 (huCD3ed) [3]) | also measured
1 | 1C10 (antibody, mouse IgG1, V domains shown, Cloned from immunized mouse, expressed as mouse IgG1; also called anti-CD3 1C10) VH: QVQLQQPGSELVRPGASVILSCKASGYTFTSYWMHWVRQRPGQGLEWIGNIYSGGDTINYDEKFKNKAILTVDTSSSTAYMHLSSLTSEDSAVYYCTRDATSRYFFDYWGQGTTVTVSS VL: DIVMSQSPSSLAVSAGEKVTMSCKSSQSLLNSRTRKNYLAWYQQKPGQSPKLLIYWASTRESGVPDRFTGSGSGTDFTLTIDSVQPEDLAVYYCTQSFILRTFGGGTKLEIK | 8 nM | 293 s | – | – | – | – | –
2 | UCHT1 (antibody, V domains shown) VH: EVQLQQSGPELVKPGPSMKISCKASGYSFTGYTMNWVKQSHGKNLEWMGLINPYKGVSTYNQKFKDKATLTVDKSSSTAYMELLSLTSEDSAVYYCARSGYYGDSDWYFDVWGQGTTLTVFS VL: DIQMTQTTSSLSASLGDRVTISCRASQDIRNYLNWYQQKPDGTVKLLIYYTSRLHSGVPSKFSGSGSGTDYSLTISNLEQEDIATYFCQQGNTLPWTFAGGTKLEIKR | < 4.74 nM | > 810 s | – | – | – | – | –
3 | 2B4 (antibody, mouse IgG1, V domains shown, Cloned from immunized mouse, expressed as mouse IgG1; also called anti-CD3 2B4) VH: EVKLVESGGGLVQPGGSLRLSCATFGFTFTDYYMTWVRQPPGKALEWVAFIRNRARGYTSDHNASVKGRFTISRDNSQNILYLQMNTLRAEDSATYYCARDRPSYYVLDYWGQGTTVTVSS VL: DIVMSQSPPSLAVSVGDKVTMSCTSSQSLFNSRSRKNYLAWYQQKSGQSPKLLISWASTRESGVPDRFTGSGSGTDFTLTISSVQAEDLAVYYCKQSYDLFTFGSGTKLEIK | 7.33 nM | 253 s | – | – | – | – | –
4 | COMBO_Rd4_0.6nM_C19 (antibody, V domains shown, IgG in SPR) VH: EVQLLESGGGLVQPGGSLRLSCAASGFTFSSYPMSWVRQAPGKGLEWVSAIGGSGGSLPYADSVKGRFTISRDNSKNTLYLQMNSLRAEDTAVYYCARYWPMDSWGQGTLVTVSS VL: EIVLTQSPGTLSLSPGERATLSCRASQSVSAVYLAWYQQKPGQAPRLLMYDASIRATGIPDRFSGSGSGTDFTLTISRLEPEDFAVYYCQQYRAWPLTFGQGTKVEIK | – | – | – | – | – | – | Kd (human BCMA): 0.02 nM; koff (human BCMA): 0.000155 s⁻¹; kon (human BCMA): 7.86e+06 M⁻¹ s⁻¹
5 | h2B4-VH-wt VL_TK (antibody, V domains shown, Anti-CD3; also called h2B4-TK) VH: EVQLVESGGGLVQPGGSLRLSCAASGFTFSDYYMTWVRQAPGKGLEWVAFIRNRARGYTSDHNASVKGRFTISRDNAKNSLYLQMNSLRAEDTAVYYCARDRPSYYVLDYWGQGTTVTVSS VL: DIVMTQSPDSLAVSLGERATINCKSSQSLFNVRSRKNYLAWYQQKPGQPPKLLISWASTRESGVPDRFSGSGSGTDFTLTISSLQAEDVAVYYCKQSYDLFTFGSGTKLEIK | – | – | 38 nM | 49.8 s | 0.014 s⁻¹ | 380000 M⁻¹ s⁻¹ | –
6 | h2B4 (antibody, V domains shown, Anti-CD3; tested as human IgG immobilised on the chip; also called h2B4-1d) VH: EVQLVESGGGLVQPGGSLRLSCAASGFTFSDYYMTWVRQAPGKGLEWVAFIRNRARGYTSDHNASVKGRFTISRDNAKNSLYLQMNSLRAEDTAVYYCARDRPSYYVLDYWGQGTTVTVSS VL: DIVMTQSPDSLAVSLGERATINCTSSQSLFNVRSRKNYLAWYQQKPGQPPKLLISWASTRESGVPDRFSGSGSGTDFTLTISSLQAEDVAVYYCKQSYDLFTFGSGTKLEIK | – | – | 31.4 nM | 50.4 s | 0.0137 s⁻¹ | 437000 M⁻¹ s⁻¹ | Kd (human CD3 (huCD3ed) [4]): 5.3 nM; T½ (human CD3 (huCD3ed) [4]): 348 s; koff (human CD3 (huCD3ed) [4]): 0.002 s⁻¹; kon (human CD3 (huCD3ed) [4]): 370000 M⁻¹ s⁻¹; Kd (cynomolgus CD3 (cyCD3ed)): 3.8 nM; T½ (cynomolgus CD3 (cyCD3ed)): 462 s; koff (cynomolgus CD3 (cyCD3ed)): 0.0015 s⁻¹; kon (cynomolgus CD3 (cyCD3ed)): 390000 M⁻¹ s⁻¹
7 | h2B4-VH-hnps VL_TK (antibody, V domains shown, Anti-CD3; also called h2B4-hnpsTK) VH: EVQLVESGGGLVQPGGSLRLSCAASGFTFSDYYMTWVRQAPGKGLEWVAFIRNRARGYTSDHNPSVKGRFTISRDNAKNSLYLQMNSLRAEDTAVYYCARDRPSYYVLDYWGQGTTVTVSS VL: DIVMTQSPDSLAVSLGERATINCKSSQSLFNVRSRKNYLAWYQQKPGQPPKLLISWASTRESGVPDRFSGSGSGTDFTLTISSLQAEDVAVYYCKQSYDLFTFGSGTKLEIK | – | – | 41 nM | 43.2 s | 0.016 s⁻¹ | 390000 M⁻¹ s⁻¹ | –
8 | h2B4-VH-yads VL_TK (antibody, V domains shown, Anti-CD3) VH: EVQLVESGGGLVQPGGSLRLSCAASGFTFSDYYMTWVRQAPGKGLEWVAFIRNRARGYTSDYADSVKGRFTISRDNAKNSLYLQMNSLRAEDTAVYYCARDRPSYYVLDYWGQGTTVTVSS VL: DIVMTQSPDSLAVSLGERATINCKSSQSLFNVRSRKNYLAWYQQKPGQPPKLLISWASTRESGVPDRFSGSGSGTDFTLTISSLQAEDVAVYYCKQSYDLFTFGSGTKLEIK | – | – | 86 nM | 47.4 s | 0.021 s⁻¹ | 240000 M⁻¹ s⁻¹ | –
9 | h2B4-VH-yaes VL_TK (antibody, V domains shown, Anti-CD3; also called h2B4-yaesTK) VH: EVQLVESGGGLVQPGGSLRLSCAASGFTFSDYYMTWVRQAPGKGLEWVAFIRNRARGYTSDYAESVKGRFTISRDNAKNSLYLQMNSLRAEDTAVYYCARDRPSYYVLDYWGQGTTVTVSS VL: DIVMTQSPDSLAVSLGERATINCKSSQSLFNVRSRKNYLAWYQQKPGQPPKLLISWASTRESGVPDRFSGSGSGTDFTLTISSLQAEDVAVYYCKQSYDLFTFGSGTKLEIK | – | – | 100 nM | 30 s | 0.023 s⁻¹ | 230000 M⁻¹ s⁻¹ | –
10 | h2B4-VH-yaps VL_TK (antibody, V domains shown, Anti-CD3) VH: EVQLVESGGGLVQPGGSLRLSCAASGFTFSDYYMTWVRQAPGKGLEWVAFIRNRARGYTSDYAPSVKGRFTISRDNAKNSLYLQMNSLRAEDTAVYYCARDRPSYYVLDYWGQGTTVTVSS VL: DIVMTQSPDSLAVSLGERATINCKSSQSLFNVRSRKNYLAWYQQKPGQPPKLLISWASTRESGVPDRFSGSGSGTDFTLTISSLQAEDVAVYYCKQSYDLFTFGSGTKLEIK | – | – | 92 nM | 30 s | 0.023 s⁻¹ | 250000 M⁻¹ s⁻¹ | –
